Measurements reported in the nanobody polyreactivity screen of Harvey et al. (2022).

Assay: yeast display, Sf9 membrane polyspecificity reagent, FACS + sequencing; frameworks hold sequencing errors
Procedure, shortened: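 A synthetic nanobody library was expressed on Saccharomyces cerevisiae BJ5465 by galactose induction for 36–48 hours. The library was stained for 1 hour at 4 °C with 10% biotinylated, detergent-solubilized Sf9 membrane reagent and enriched with streptavidin microbeads before FACS. Low and high (top ~1%) gates were set on anti-HA fluorescence for expression and streptavidin fluorescence for reagent binding, and each polyreactivity label reflects the gate of origin.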

Sequence | polyreactivity (PSR sort gate)
QVQRVESGGGLVQAGGSLRLSCAASGNTFWLNAMGWYRQAPGKERELVAAITYTDGSTYADSVKGRFTISRDNAKNTVYLQMNSLKPEDTAVYYCAARYQWDWRDYYYWGQGTQVTVSS | low polyreactivity
QVQRVESGGGLVQAGGSLRLSSAASGRTSRYAMGWYRQAPGKERELVAAISRSGGSTHNADSVKGRFTISRDNAKNNVYLHMNSLKPEDTAVYSCNAQQGRYWSAKGYDYWGQGTQVTVSS | high polyreactivity
QVQLVESGGGLVQAGGSLRLSCAASGSIFRYYAKGWYRHAPGKERELVAVISRSGTRTYYADSVKGRFTISRDNAKNTVYLQMNSLKPEDTAVYYCAAKDERRSFGMGYWGQGTQVTVSS | high polyreactivity
QVQLVESGGGLVQAGGSLRLSCAASGSTLGSNARGWYRQAPGKERALVAAITWSGGTTYYADSVKGRFTISRDNAKNPVYLQMNSLKPEDTAVYYCATGQSVIYRYDYWGQGTQVTVSS | low polyreactivity
QVQLVESGGGLVQAGGSLRLSCAASGIIFNANTMLWYRQAPGKERELVAAITRGGSTNYADSEKGRFTISRDNAKNTVYLQMNSLKPEDTAVYYCAARTGYYCGSGGNRYISPYDYWGQGTQVTVSS | low polyreactivity
QVQLVESGGGLVQAGGSLRLSCAASGRIFVFYAMGWYRQAPGKERELVAAITSGGSTYYADSVKGRFTISRDNAKNTVYLQMNSLKPEDTAVYYCAARGRVSWSTYWYEYWGQGTQVTVSS | high polyreactivity
QVQLVESGGGLVQAGGSLRLISAASGSIFAKYAMGWYRHAPGKERELVAAITGSGGSTYYADSVKGRFTISRDNAKNTVYLQMNSMKPEDPAVYYCAKRRPRYTYNYCGQGTQVTVSS | high polyreactivity
QVQHVESGGGLVQARGSLRLSCAASGSIFWYNAMGWYRQAPGTVRELVAAINWSGGSTFYADSVKGRFTISRDNAKNTVYLQMNSLKPEDTAVDYCAADDWYTGYDYWGQGTQVTVSS | high polyreactivity
QVQLVESGGGLVQAGGSLRLSCAASGGIFQGYTMGWYRQAPGKERELVAAISRRGGSTYYADSVKGRFTNSRDNAKNTVYLQMNSVKPEDTAVYYCAAGKPLQLPRYDYWGQGTQVTVSS | low polyreactivity
QVQLVESGGGLVQAGGSLRLSCAASGYIFGSYAMGWYRQAPGKERELVASITRVDSTNYADSVKGRFTISRDNAKNTVYLQMNSLKAEDTAVYYCAADITTPAYATYDYWGQGTQVTVSS | low polyreactivity
QVQLVESGGGLVQAGGSLRLSCAASGSIFIYYAMGWYRQAPGKERELVAAISFSGARTYYADSVKGRFTISRDNAKNNVSLQMNSLKPEDTAVYYCNVEIGTGDYDYWGQGTQVTVSS | low polyreactivity
QVQHVESGGGLVQAGGSLLLSSAASGRTFLVNAMGWNRQAPGKEREFVAAITSRSGRTNYADSVKGRFTISRDTAKNNVYLQMNSLKPEDTAVYYCNAEGYTVKYWYSRYDYWGQGTQVTVSS | high polyreactivity
QVQLVESGGGLVQAGGSLSLRCAASGGTFAPYAMGWYRQAPGTERELDAAISWSGGSTYYADSVKGLFTISRDNAKISVYLQMNSLKPEDTAVYYCAGRLTRGIYSTYYYWGQGTQGTVSS | high polyreactivity
QVQLVESGGGLVQAGGSLLLSCAASGRIINYYAMGWYRQAPGKEREFVAAITRSGGRTYYADSVKGRFTISRDNAKNTVYLQMNSLKPEDTAVYYCAAPYGTYAYDYWGQGTQVTVSS | high polyreactivity
QVQLVESGGGLVQAGGRLRLSCAASGRIFERYAMGWYRQAPGKERELVATISTSGGSTYYADSVKGRFTISRDNAKNTVYLQMNSLKPEDTAVYYCAAPYQRRRYYYWGQGTKVTVSS | high polyreactivity
QVQLVESGGGLVQAGGSLRLSCAASGNTFGWNAMGWSRQAPGKERELVAAIDIGADTNYADSVKGRFTISRDNAKNTVYLQMNSLKPEDTAVYYCAASYRYVRWKWGYNYWGQGTQVTVSS | high polyreactivity
QVQLVESGGGLVQAGGSLRLSCAASGSTFQGYAMGWYRQAPGNERELVAAISRRGGSTYYADSVKGRFTISRDNAKNTVYFQKNSLKPEDTAVYYCNAVVRTIVLYYWGQGTQVTVSS | high polyreactivity
QVQLVESGGGLVHAGGSLLLSCSASGSIFTVNAMGWYRQAPGKERELVAAISSGGSTHYADSVKGRFTISRDNAKNTVYLQMISLKPEDTAVYYCAAVYVPYYGYYTRYDYWGQGTQVTVSS | low polyreactivity
QVQLVESGGGLVQAGGSLRLSCPASGRTFILNDMGRYRQAPGKEREFVATIDWSGGSSYYADSVKGRFTISRDNAKNTVFLQMNSLKPEDTAVYYCNRAFVPVYDLDYYWGQGTQVTVSS | low polyreactivity
QVQLVESGGGLVQAGGSLRLSCAASGFTFSHNAMGWYRQAPGKERELVAAISGSGGRTYYADSVKGRFTISRDNAKNTVYLQMNSLKPEDTAVYYCNAGRWWRRGYGYWGQGTQVTVSS | high polyreactivity
QVQLVESGGGLVQAGGSLRLSCAASGFTFYDNAMGWYRQAPGKERELVAAISWSGGSTYADSVKGRFTISRDNAKNTVYVQMNSLKPEDTAVYYCNADAWLASGYRYDYWGQGTQVTVSS | low polyreactivity
QVQLVESGGGLVQAGGSLRLSCAASGYSFYKYAMGWYRQAPGKERELVAAISYSGGSTYYADSVKGRFTISRDNAKNTVYLQMNSLKPEDTAVYYCAAVGATKGLRYGYWGQGTQVTVSS | low polyreactivity

Sequence | polyreactivity (PSR sort gate)
QVQRVESGGGVVQAGGSLRLSCAASGSTFQLYAMGWYRQAPGKERELVAGISRDGSTYYADSVKGRFTISRDNAKNTVYLQMNSLKPEDTAVYYCAAKYYGNKRDLYYWGQGTQVTVSS | low polyreactivity
QVQLVESGGGLVQAGGSLRLRCAASARTFAGYALGWYRQAPGKERELVAAITTGGSTKYADSVKGRFTISRDNAKNTVYLQMNSLKQEDTAVYYCAAESYYKYFNKYDYWGQGTQVTVSS | high polyreactivity
QVQLVESGGGLVQAGGSLRLSCAASGSTFLLYAMGWYRQAPGKERELVATISWGGDGTYYADSVKGRFTISRDHAKNTDYLQMNSLKPDDTAVYDCAAQSYLVQFYFLYYYWGQGTQVTVSS | low polyreactivity
QVQLVESGGCLVQAGGSLRLSCAASGRTFRWYAMGWYRQAPGKESELVAAINPGGSTNYADSVKGRFSISRDNAKNTVYLQMNSLKPEDTAVYYCNAAGYDALTHNYYWGQGTQVTVSS | low polyreactivity
QVQLVESGGGLVQAGGSLRLSCAASGRIFDHYAMVWYRQAPGKERELVAAITRSGGITYYADSVKGRFTISRDNAKYTVYLQMNSLKPEDTAVYYCAALSYRYTDNFDYWGQGTQVTVSS | low polyreactivity
QVQLVESGGGLVQAGGSLRLSCAASGRTFWSNAMGWSRQAPGKERELVAAITWSGGSTSYADSVKGRFTISRDNAKNTVYLQMNSLKTEDTAVYYCAAGKGVELAKLDYWGQGTQVTVSS | low polyreactivity
QVQLVESGGGLVQEGGSLRLSCAASGFTFAQYALGWYRQAPGNERELVAAISRRGGRTYYADSVTGRFTISRDIAKNTVYLQMTSLKPEDSAVSYCAADGGYQDDYDYWGQGTQVTVSS | high polyreactivity
QVQLVETGGVLVQAGGSLSLSCAASGSTFGWYVMGWYRQAPGKERELVAAITYSGDSTYYADSVKGRFTISRDNAKNTVYLQMNSLKPEDTAVYYCAADLSGYGKRYDYWGQGNQVTVSS | low polyreactivity
QVQLVESGGGLVQAGGSLRLSCADSGITLVYDGMGWDIQAPGKERELVAAISWTGGSTFYADSVKGLFTISLDNAKKTVYLQMNSLKPEDTAVYYCAADRGYFYSRIQVDSDYWGQGTQVTVSS | low polyreactivity
QVQLVESGGGLVHAGGSLRLSCAASGRIFIANAMGWYRQAPGNERELVAGIRGSGGRTYYADSVKGRFTISRDNAKNTVYLQMNSLKPEDTAVYDCNARTPGRLGRFDYWGQGTQVTVSS | low polyreactivity
QVQLVESGGGLVQAGGSLRLSCAASGITFGPYAMGWYRQAPGKERELVATISSSGGSTYYADSVKGRFTISRDNAKNTVYLQMNSLKPEDTAVYYCNAGYAPYLGAYDYWGQGTQVTVSS | low polyreactivity
QVKLVESGGGLVQAGGTLPITCAASGRTFARYAMVWYRQAPGKERELVSAITGRSGTNTYYADSVKGRFTISRDNAKNTVYLQMNSLKPEDTAVYYCAADLQGYYFRGRWTSYDYWGQGTQVTVSS | high polyreactivity
QVQLVESGGGLVQAGGSLRLSCAASGSIFSENAMGWYRQAPGKERELVAAITGGASTNYADSVKGRFTISRDNAKNTVYLQMNSLKPEDTAVYYCAADANRTKFDYWGQGTQVTVSS | low polyreactivity
QVQLVESGGGLVQAGGSLRLSCAASGFTFDINAMGWSRQAPGKERELVAAISRSGGRTYYADSVKGRFTISRDNAKNTVYLQMNSLKPDDTAVYYCAARYPERRYNTFDYWGQGTQVTVSS | high polyreactivity
QVQLVESAGGLVQAGGILRLSCAASGSIFVGYDMGWSRQAPGKERELVAAITSSGGGSTYYADSVKGRFTISRDNAKNTVYLQMNSLKPEDTAVYYCAARTSLWWFLKYDYWGQGTQVTVSS | low polyreactivity
QVQLVESGGGLVQAGGSLRLSCAASGFTFTYYVMGWYRQAPGKDRELVAAISQGGGSTYYADSVKGRFTISRDNAKNTVYLQMNSLKPEDTAVYYCAARRVGYGTDRYYGYDSWGQGTQVTVSS | high polyreactivity
QVQLVESGGGLVQAGGSLRLSCAASGLIFDDYAMGWYRQAPGKERELVAAISWSDGTTYYADSVKGRFTISRDNAKNTVYLQMNSLKTEDTAVYYCAAEEVSGWEYDYWGQGTQVTVSS | high polyreactivity
QVQLVESGGGLVQAGGSLRLSCAASGSTSRSYTMGWYRQAPGKEREFVASIRWSGGRTYNADSVKGRFTISRDNAKNTVYLQMNSLKPEDTAVYYCNADYYRLRFRLGWYDYWGQGTQVTVSS | high polyreactivity
QVQLVESGGGLVQAGGSLRLSCAASGYTFRPYAMGSYIQAPGKERELVAAISSTGGRTYYADSVKGRFTISRDIAKNTVYVQMNSLKPEYTAVYYCAVLKVYRSSFDYCGQGTQVTVSS | high polyreactivity
QVQLVESGGGLDQAGGSLRLSCAASGRIFPFNAMGWYRQAAGKERELVASIRSTGGNTYYADSVKGRFTISRDNAKNTVYLQMISLIPEDSAVYYWGQGTQVTVSS | low polyreactivity
QVQLVESGGGLVQAGGSLRLSCAASGFTFRIYTMVWYRPAPRKERELVAAISSRGGSTYYADSVKGRFTISRDNAKNTVYLQMNSLKPEDTAVYYCAASGRVYSSGYDYWGQGTQVTVSS | high polyreactivity
